Data taken from patent publication US20030186868A1 (Regeneron, published 2003).
Read-outs that look alike come from different tables or passages of the source. One block for each binder: values may come before it. Ends that are not written are not given here.

Assays:
[1] = biological target: T1, VEGFR-2/NP-1 co-receptor complex (cells co-expressing hVEGFR-2 and hNP-1) (human, UniProt P35968 20-1356; O14786 22-923); experiment: 125I-VEGF165 affinity labeling of HUVEC, VEGFR-2 immunoprecipitation, 100 µM peptide (FIG. 10A)
T1 construct: whole, on cells; All numbers printed for cells co-expressing both receptors are put on this molecule; also called R2 + NP1 Cells; VEGFR-2/NP-1 complex
T1 sequence (P35968 20-1356, chain 1 of 2): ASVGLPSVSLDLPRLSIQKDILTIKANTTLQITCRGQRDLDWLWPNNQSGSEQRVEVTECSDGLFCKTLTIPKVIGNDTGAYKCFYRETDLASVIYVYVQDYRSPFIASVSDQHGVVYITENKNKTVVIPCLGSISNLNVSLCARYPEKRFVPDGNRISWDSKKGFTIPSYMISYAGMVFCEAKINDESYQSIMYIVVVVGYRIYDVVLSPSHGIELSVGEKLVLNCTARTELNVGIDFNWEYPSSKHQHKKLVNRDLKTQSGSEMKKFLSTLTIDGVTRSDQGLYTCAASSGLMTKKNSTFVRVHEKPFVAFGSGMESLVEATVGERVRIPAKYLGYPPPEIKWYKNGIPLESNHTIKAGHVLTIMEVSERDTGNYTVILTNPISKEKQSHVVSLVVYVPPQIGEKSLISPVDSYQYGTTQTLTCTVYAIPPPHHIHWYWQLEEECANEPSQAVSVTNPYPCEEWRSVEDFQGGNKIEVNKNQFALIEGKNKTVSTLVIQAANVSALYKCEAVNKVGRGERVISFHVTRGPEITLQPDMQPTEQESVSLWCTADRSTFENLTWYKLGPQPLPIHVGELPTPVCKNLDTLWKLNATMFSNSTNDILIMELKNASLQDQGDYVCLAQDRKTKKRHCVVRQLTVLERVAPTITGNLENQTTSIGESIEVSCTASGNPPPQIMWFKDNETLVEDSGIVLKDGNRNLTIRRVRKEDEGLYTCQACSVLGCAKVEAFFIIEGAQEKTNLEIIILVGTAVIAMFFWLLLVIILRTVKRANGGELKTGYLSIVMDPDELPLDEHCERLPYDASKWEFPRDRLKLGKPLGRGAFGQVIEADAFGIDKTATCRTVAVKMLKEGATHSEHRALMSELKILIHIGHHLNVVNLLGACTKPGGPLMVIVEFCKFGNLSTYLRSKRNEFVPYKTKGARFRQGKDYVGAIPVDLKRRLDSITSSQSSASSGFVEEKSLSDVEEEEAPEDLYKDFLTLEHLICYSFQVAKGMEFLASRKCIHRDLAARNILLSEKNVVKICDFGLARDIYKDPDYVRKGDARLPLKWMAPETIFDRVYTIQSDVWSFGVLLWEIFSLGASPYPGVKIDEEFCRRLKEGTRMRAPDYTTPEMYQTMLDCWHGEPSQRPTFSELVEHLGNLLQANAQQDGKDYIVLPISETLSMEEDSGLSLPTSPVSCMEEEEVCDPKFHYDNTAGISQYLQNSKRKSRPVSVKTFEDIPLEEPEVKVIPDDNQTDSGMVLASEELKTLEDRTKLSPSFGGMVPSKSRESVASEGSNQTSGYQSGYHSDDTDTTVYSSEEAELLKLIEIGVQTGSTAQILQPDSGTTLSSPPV
T1 sequence (O14786 22-923, chain 2 of 2): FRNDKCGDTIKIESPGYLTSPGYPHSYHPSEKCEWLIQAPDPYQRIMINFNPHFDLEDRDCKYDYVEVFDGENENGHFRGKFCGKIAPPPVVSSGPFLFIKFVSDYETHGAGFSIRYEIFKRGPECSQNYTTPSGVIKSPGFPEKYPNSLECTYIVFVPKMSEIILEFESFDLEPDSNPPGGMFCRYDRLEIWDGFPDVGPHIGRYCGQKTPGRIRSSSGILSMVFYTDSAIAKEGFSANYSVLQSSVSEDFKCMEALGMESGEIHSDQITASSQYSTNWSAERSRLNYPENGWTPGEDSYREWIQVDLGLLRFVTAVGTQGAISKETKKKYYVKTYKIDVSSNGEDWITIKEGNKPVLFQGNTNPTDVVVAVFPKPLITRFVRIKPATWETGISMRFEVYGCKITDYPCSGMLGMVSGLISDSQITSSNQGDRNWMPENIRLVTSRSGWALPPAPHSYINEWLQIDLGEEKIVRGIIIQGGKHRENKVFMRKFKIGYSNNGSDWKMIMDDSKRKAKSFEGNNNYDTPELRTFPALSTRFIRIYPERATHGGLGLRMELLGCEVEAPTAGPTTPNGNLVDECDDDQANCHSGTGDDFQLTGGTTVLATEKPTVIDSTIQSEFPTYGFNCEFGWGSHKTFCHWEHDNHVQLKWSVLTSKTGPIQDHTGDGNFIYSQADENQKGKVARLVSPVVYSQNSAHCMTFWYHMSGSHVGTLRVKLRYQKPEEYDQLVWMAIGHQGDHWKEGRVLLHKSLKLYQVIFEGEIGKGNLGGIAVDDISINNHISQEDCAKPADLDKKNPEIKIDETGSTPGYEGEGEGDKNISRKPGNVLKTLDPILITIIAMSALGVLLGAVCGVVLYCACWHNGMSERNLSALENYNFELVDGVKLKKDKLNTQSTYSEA
Procedure: (§1) The crosslinker is removed with a single, ice cold, large volume wash (15 ml DPBS, Gibco). The cells are then lysed using RIP buffer (20 mM Tris HCl, pH 7.4; 100 mM NaCl; 1 mM EDTA; 10 mM NaI; 0.5% IGEPAL CA-630; 0.5% Na-deoxycholate; 1% BSA; all from Sigma). The lysate is then transferred to 1.5 ml conical tubes and centrifuged at 13,000×g to pellet the cellular debris. […] The precipitation tube is then incubated overnight at 4° C. on a nurator. The following morning the beads are washed three times in TNEN buffer (20 mM Tris-HCl pH 7.4; 100 mM NaCl; and 0.5% IGEPAL CA-630, all from Sigma), and heated for two minutes at 100° C. in 25 μl of 1×sample loading dye (5′-3′). The samples are then centrifuged to separate the beads from the sample buffer, and 20 μl of the sample buffer is loaded onto 6% SDS-PAGE gels (Novex). The gels are run at 35 mA for approximately 70 minutes, and then equilibrated in a drying buffer (10% acetic acid; 10% methanol, 80% H₂O) for 15 minutes and dried on a gel drier. The dried gels are then exposed to a phosphor screen overnight and developed using a Storm system (Molecular Dynamics).
(§2) Further amino terminal deletions were conducted.

[2] = biological target: human Neuropilin-1 (hNP-1) (human) (UniProt O14786); experiment: 125I-VEGF165 competition, whole COS-1 cells
Chain of human Neuropilin-1 (hNP-1) (human) (O14786 22-923): as the sequence (O14786 22-923, chain 2 of 2) above

[3] = biological target: human vascular endothelial growth factor receptor-2 (hVEGFR-2) (human) (UniProt P35968); experiment: 125I-VEGF165 competition, whole COS-1 cells
Chain of human vascular endothelial growth factor receptor-2 (hVEGFR-2) (human) (P35968 20-1356): as the sequence (P35968 20-1356, chain 1 of 2) above

[4] = biological target: T2, human vascular endothelial growth factor receptor-2 (hVEGFR-2) (human, UniProt P35968 20-1356); experiment: 125I-VEGF165 competition, whole COS-1 cells
T2 construct: whole, on cells; also called flk-1; FLK-1
T2 sequence (P35968 20-1356): as the sequence (P35968 20-1356, chain 1 of 2) above
Procedure: (§3) Cells are plated the day before experimentation at 200,000 cells per well in twelve well tissue culture plates (VWR) in 1 ml of growth medium specific for each cell type. On the day of experimentation, the cells were pre-equilibrated at 4° C. for 30 to 60 minutes in binding buffer (0.2% BSA, Sigma; 25 mM Hepes, Gibco; MEM, Gibco). […] The binding reaction is allowed to reach equilibrium for four hours at 4° C. with gentle agitation.
(§4) Unbound ligand is then removed by quickly washing three times with 5 ml ice cold BSA-free binding buffer (MEM, Gibco, 25 mM Hepes, Gibco). Cells are lysed by the addition of 250 μl of RIPS Buffer (previously described), and the lysed cells are transferred to 12×75 mm test tubes and counted using a gamma counter. Generation of competition curves and IC₅₀ values are performed using the Prism software package (Graphpad Software Inc., San Diego, Calif.).

[5] = biological target: T3, human Neuropilin-1 (hNP-1) (human, UniProt O14786 22-923); experiment: 125I-VEGF165 competition, whole COS-1 cells
T3 construct: whole, on cells; also called hNeuropilin-1
T3 sequence (O14786 22-923): as the sequence (O14786 22-923, chain 2 of 2) above
Procedure: as §3, §4

[6] = biological target: VEGFR-2/NP-1 co-receptor complex (cells co-expressing hVEGFR-2 and hNP-1) (human) (UniProt P35968); experiment: 125I-VEGF165 competition, whole COS-1 cells
Chain of VEGFR-2/NP-1 co-receptor complex (cells co-expressing hVEGFR-2 and hNP-1) (human) (P35968 20-1356, chain 1 of 2): as the sequence (P35968 20-1356, chain 1 of 2) above
Chain of VEGFR-2/NP-1 co-receptor complex (cells co-expressing hVEGFR-2 and hNP-1) (human) (O14786 22-923, chain 2 of 2, further chain): as the sequence (O14786 22-923, chain 2 of 2) above

[7] = biological target: VEGFR-2/NP-1 co-receptor complex (cells co-expressing hVEGFR-2 and hNP-1) (human) (UniProt P35968); experiment: 125I-VEGF165 competition, whole COS-1 cells; remark: listed apart in the source
[8] = biological target: T1, VEGFR-2/NP-1 co-receptor complex (cells …); experiment: 125I-VEGF165 competition on COS-1 cells and affinity labeling of HUVEC
[9] = biological target: T3, human Neuropilin-1 (hNP-1); experiment: 125I-VEGF165 competition, stable Balb/C 3T3 A31 cells
[10] = biological target: T1, VEGFR-2/NP-1 co-receptor complex (cells …); experiment: as above
[11] = biological target: T1, VEGFR-2/NP-1 co-receptor complex (cells …); experiment: 125I-VEGF165 affinity labeling of HUVEC, VEGFR-2 immunoprecipitation, 100 µM peptide (FIG. 10B)
Procedure: as §1, §2

[12] = biological target: T2, human vascular endothelial growth …; experiment: cell-based or functional assay
[13] = biological target: T2, human vascular endothelial growth …; experiment: cell-based or functional assay; remark: listed apart in the source
[14] = biological target: T2, human vascular endothelial growth …; experiment: 125I-VEGF165 (287 pM) competition by cold ligand, COS-1 cells overexpressing VEGFR-2
Procedure: The cells were then rinsed three times with ice cold binding buffer to remove unbound ligand, lysed, and transferred to 12×75 mm test tubes for counting on a gamma counter. The IC₅₀ values were calculated by fitting the data to a four parameter logistic equation (Prism software).

[15] = biological target: T3, human Neuropilin-1 (hNP-1); experiment: 125I-VEGF165 competition by cold VEGF165, whole COS-1 cells
Procedure: as §3, §4

[16] = biological target: T3, human Neuropilin-1 (hNP-1); experiment: saturation binding of 125I-VEGF165, whole COS-1 cells (transient)
Procedure: as §3, §4

Binder: RRREKQRPCDKPRR (also called PGV8-8N) [P6V8-8N]
- binding result [1]: binds

Binder: AGRGARAAEAQRPSDKPRR [P6V8-3NCSA1, 5, 7, 8, 10]
- relative affinity to lead peptide (IC50 peptide / IC50 P6V8-3NCS) [2]: 67.8
- relative affinity (IC50 peptide / IC50 VEGF165) [3]: 212000

Binder: KGRGKRAAEKQAPSDKPRR [P6V8-3NCSA7, 8, 12]
- relative affinity (IC50 peptide / IC50 VEGF165) [6]: 36600
- relative affinity (IC50 peptide / IC50 VEGF165) [3]: 6000

Binder: KGRGKRRREKQRPSDKPR [P6V8-3NCS-1C]
- binding result [11]: binds

B2: VEGF121 (ligand, UniProt P15692-9 27-147, looked up)
chain: APMAEGGGQNHHEVVKFMDVYQRSYCHPIETLVDIFQEYPDEIEYIFKPSCVPLMRCGGCCNDEGLECVPTEESNITMQIMRIKPHQGQHIGEMSFLQHNKCECRPKKDRARQEKCDKPRR
- EC50 of VEGF121 for VEGFR-2 phosphorylation in HUVEC in the presence of 100 µM P6 (FIG. 8) [12]: 2.38 nM
- EC50 of VEGF121 for VEGFR-2 phosphorylation in HUVEC in the presence of 100 µM P6V8 (FIG. 8) [12]: 4.04 nM
- EC50 of VEGF121 for VEGFR-2 phosphorylation in HUVEC with antagonist P6V8-3NCSC13C18 (FIG. 12) [12]: 2.08 nM
- EC50 of VEGF121 for VEGFR-2 phosphorylation in HUVEC, no peptide (FIG. 8) [12]: 1.84 nM
- EC50 of VEGF121 for VEGFR-2 phosphorylation in HUVEC, no peptide (FIG. 12) [12]: 2.75 nM
- EC50 of VEGF121 for VEGFR-2 phosphorylation in HUVEC, no peptide (FIG. 13) [12]: 3.38 nM
- EC50 of VEGF121, VEGFR-2 anti-phosphotyrosine assay in HUVEC, no peptide added [13]: 2.45 nM
- EC50 of VEGF121, VEGFR-2 anti-phosphotyrosine assay in HUVEC, with 100 µM P6 [13]: 2.4 nM
- EC50 of VEGF121, VEGFR-2 anti-phosphotyrosine assay in HUVEC, with 100 µM P6V8 [13]: 4.07 nM
- EC50 of VEGF121, VEGFR-2 anti-phosphotyrosine assay in HUVEC, with 100 µM P6V8-3N [13]: 1.17 nM
- EC50 of VEGF121, VEGFR-2 anti-phosphotyrosine assay in HUVEC, with 100 µM P6V8-3N (second row with this label) [13]: 1.62 nM
- EC50 of VEGF121, VEGFR-2 anti-phosphotyrosine assay in HUVEC, with 100 µM P6V8-3NCS [13]: 4.57 nM
- EC50 of VEGF121, VEGFR-2 anti-phosphotyrosine assay in HUVEC, with 100 µM P6V8-3NCS1-7CC [13]: 3.31 nM
- EC50 of VEGF121, VEGFR-2 anti-phosphotyrosine assay in HUVEC, with 100 µM P6V8-3NCSA7, 8, 10, 12 [13]: 17.8 nM
- EC50 of VEGF121, VEGFR-2 anti-phosphotyrosine assay in HUVEC, with 100 µM P6V8-3NCSC13C18 [13]: 2.09 nM
- Log EC50 of VEGF121, VEGFR-2 anti-phosphotyrosine assay in HUVEC, no peptide added [13]: -8.61
- Log EC50 of VEGF121, VEGFR-2 anti-phosphotyrosine assay in HUVEC, with 100 µM P6 [13]: -8.62
- Log EC50 of VEGF121, VEGFR-2 anti-phosphotyrosine assay in HUVEC, with 100 µM P6V8 [13]: -8.39
- Log EC50 of VEGF121, VEGFR-2 anti-phosphotyrosine assay in HUVEC, with 100 µM P6V8-3N [13]: -8.93
- Log EC50 of VEGF121, VEGFR-2 anti-phosphotyrosine assay in HUVEC, with 100 µM P6V8-3N (second row with this label) [13]: -8.79
- Log EC50 of VEGF121, VEGFR-2 anti-phosphotyrosine assay in HUVEC, with 100 µM P6V8-3NCS [13]: -8.34
- Log EC50 of VEGF121, VEGFR-2 anti-phosphotyrosine assay in HUVEC, with 100 µM P6V8-3NCS1-7CC [13]: -8.48
- Log EC50 of VEGF121, VEGFR-2 anti-phosphotyrosine assay in HUVEC, with 100 µM P6V8-3NCSA7, 8, 10, 12 [13]: -7.75
- Log EC50 of VEGF121, VEGFR-2 anti-phosphotyrosine assay in HUVEC, with 100 µM P6V8-3NCSC13C18 [13]: -8.68
- binding result [5]: no binding
- IC50 [14]: 0.312 nM

B3: human recombinant VEGF165 (ligand, UniProt P15692-4 27-191, looked up)
chain: APMAEGGGQNHHEVVKFMDVYQRSYCHPIETLVDIFQEYPDEIEYIFKPSCVPLMRCGGCCNDEGLECVPTEESNITMQIMRIKPHQGQHIGEMSFLQHNKCECRPKKDRARQENPCGPCSERRKHLFVQDPQTCKCSCKNTDSRCKARQLELNERTCRCDKPRR
modifications: 125I-labelled (chloramine T) where used as tracer
- IC50 [15]: 0.582 nM
- log IC50 [15]: -9.24
- Kd [16]: 2.09 nM
- Log Kd [16]: -8.68

Continued, values first:

- binding result [4]: no binding
- binding result [5]: no binding
Binder: RPCDKPRR [V8]

- relative affinity (IC50 peptide / IC50 VEGF165) [7]: 96200
- binding result [4]: no binding
B1: (cap)P6V8-3NCS (peptide)
peptide: KGRGKRRREKQRPSDKPRR
modifications: not fully specified (N-terminus, C-terminus); also: amino and carboxyl termini capped, caps not given here

- binding result [4]: no binding
- binding result [8]: binds
Binder: RREKQRPCDKPRR [P6V8-9N]

- binding result [4]: no binding
- IC50 [9]: 17.8 nM
- IC50 [10]: 300 nM
Binder: RRPKGRGKRRREAAAPSDKPRR (also called NP-1 selective peptide) [AS-4]
